The values below come from patent US20120177636A1.

The target in assay [1] is CA215 on NaIO4-treated OC-3-VGH cancer cells (human). Kind of assay: direct binding EIA on OC-3-VGH cell-coated wells, with NaIO4 treatment.
In assay [2] the target is CA215 (human). Kind of assay: direct binding EIA on OC-3-VGH cell-coated wells, without NaIO4 treatment.
The target of assay [3] is CA215 (human). Kind of assay: sandwich EIA: antibody coated at 5 µg/ml, OC-3-VGH shed medium, HRP-labeled RP215 as detector; no human IgG.
The target of assay [4] is CA215 (human). Kind of assay: sandwich EIA: antibody coated at 5 µg/ml, OC-3-VGH shed medium, HRP-labeled RP215 as detector; with 10 µg/ml human IgG.
In assay [5] the target is CA215 (human). Kind of assay: two-step ELISA on OC-3-VGH cancer cells, goat anti-mouse IgG-ALP; OD over that of normal mouse IgG at the same concentration.
Assay [6] concerns the target RP215 monoclonal antibody. Kind of assay: ELISA, RP215 coated in wells, goat antibody as detector; row normalised to RP215.
Assay [7] has as its target humanized RP215. Kind of assay: ELISA, hRP215 coated in wells, goat antibody as detector; row normalised to RP215.
The target in assay [8] is chimeric RP215 mAb. Kind of assay: ELISA, chRP215 coated in wells, goat antibody as detector; row normalised to RP215.
Chain of chimeric RP215 mAb (VH, as listed by the source, chain 1 of 2): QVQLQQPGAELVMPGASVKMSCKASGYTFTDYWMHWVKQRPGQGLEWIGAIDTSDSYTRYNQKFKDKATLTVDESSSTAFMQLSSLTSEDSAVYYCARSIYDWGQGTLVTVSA
Chain of chimeric RP215 mAb (VL, as listed by the source, chain 2 of 2): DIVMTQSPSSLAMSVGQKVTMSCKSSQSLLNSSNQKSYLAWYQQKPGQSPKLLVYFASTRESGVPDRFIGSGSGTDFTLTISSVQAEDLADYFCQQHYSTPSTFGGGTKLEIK
Assay [9] deals with human IgG (human). Kind of assay: ELISA, human IgG coated in wells, goat antibody as detector; row normalised to RP215.
Assay [10] addresses CA215 (human). Kind of assay: sandwich EIA: antibody coated at 5 µg/ml, OC-3-VGH shed medium, HRP-labeled RP215 as detector; no human IgG; relative to RP215.
Assay [11] has as its target CA215 (human). Kind of assay: sandwich EIA: antibody coated at 5 µg/ml, OC-3-VGH shed medium, HRP-labeled RP215 as detector; with 10 µg/ml human IgG; relative to RP215.

Chain of RP215 monoclonal antibody (VH, as listed by the source, chain 1 of 2): as the sequence (VH, as listed by the source, chain 1 of 2) above
Chain of RP215 monoclonal antibody (VL, as listed by the source, chain 2 of 2): as the sequence (VL, as listed by the source, chain 2 of 2) above

With RP215 monoclonal antibody, the Optical Density at 450 nm in [1] came out at 0.797; in assay [2], 2.15. Also, the percent maximum binding stood at 37% in assay [1] and 100% in [2]. Besides, the Relative Signal Intensity in Sandwich EIA in assay [3] and in assay [4] was 100% each time. The ODs405/ODn405 in assay [5] worked out at 11.6.

For the substance goat anti-mouse IgG (antibody), the Relative Intensity is 100% in [6], 5% in assay [7], 7% in assay [8] and 3% in assay [9].

On to chimeric RP215 mAb (antibody), for which the Relative Signal Intensity in Sandwich EIA in assay [10] came out at 14.5%; in [11], 15.4%.
